Assay results from doi:10.1101/2022.11.19.22282342.

Target: TYROBP transmembrane domain (TMD), bacterial two-hybrid fusion (UniProt O43914)
Assay: two-hybrid

UniProt O43914, sequence (O43914 22-113): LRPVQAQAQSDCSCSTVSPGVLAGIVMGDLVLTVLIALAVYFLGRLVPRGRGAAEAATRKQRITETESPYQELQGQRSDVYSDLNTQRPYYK

Molecule “TREM2 transmembrane domain (TMD), bacterial two-hybrid fusion (from UniProt Q9NZC2 19-230) (domain or fragment)” has a Miller Units (β-galactosidase, B2H) of 903 Miller Units.

Work on PLLIAFLLGPKVLLVVGVSVIYVY (domain or fragment) [SIRPβ1 isoform 202 transmembrane domain (TMD), bacterial two-hybrid fusion] yielded a Miller Units (β-galactosidase, B2H) of 94 Miller Units.

Molecule PLLVALLLGPKLLLVVGVSAIYIC (domain or fragment) [SIRPβ1 isoform 201 transmembrane domain (TMD), bacterial two-hybrid fusion] has a Miller Units (β-galactosidase, B2H) of 111 Miller Units.
